Measurements taken from paper PMC4834570.
pKd: −log10 of the molar value.

Molecular target: A1-tagged Gal-1 (galectin-1) (UniProt P09382)
Assay: FRET or BRET; in vitro sensitized acceptor emission FRET titration; 100 nM ATTO-488-labelled Gal-1 titrated with 100 nM to 1000 nM DY-547-labelled C-Raf-RBD; 25 mM HEPES, 100 mM NaCl, 3 mM MgCl2, 3 mM DTT, pH 7.2

In the case of “A1-tagged C-Raf-RBD (from UniProt P04049 56-131) (domain or fragment)”, the pKd was 6.97.
